Key:
[1] = biological target: human antibody (gamma globulin preparation, manufactured by The Chemo-Sero-Therapeutic Research Institute) (human); assay: ELISA; human gamma globulin immobilised, alkali-untreated protein extract, Anti-6-His detection
[2] = biological target: immunoglobulin immobilized on IgG Sepharose 6 Fast Flow (manufactured by Cytiva); assay: IgG Sepharose 6 Fast Flow column; linear gradient 0.1 M citrate pH 6.5 to pH 2.2; pH at the peak of the eluted binding protein
[3] = biological target: human PCSK9 antibody containing human κ light chain subgroup 4 (Vκ4) (manufactured by R&D Systems); assay: ELISA; antibody immobilised (10 ug/mL), binding protein at 50 ug/mL, Anti-6-His detection, blank-subtracted
[4] = biological target: Herceptin containing human κ light chain subgroup 1 (Vκ1) (manufactured by Chugai Pharmaceutical Co., Ltd.); assay: as above
[5] = biological target: human CTLA4 antibody containing human κ light chain subgroup 3 (Vκ3) (manufactured by R&D Systems); assay: as above
[6] = biological target: human PDGF R alpha antibody containing human κ light chain subgroup 3 (Vκ3) (manufactured by R&D Systems); assay: as above
[7] = biological target: Herceptin containing human κ light chain subgroup 1 (Vκ1) (manufactured by Chugai Pharmaceutical Co., Ltd.); assay: ELISA; antibody immobilised, binding protein added, Anti-6-His detection (method of Example 21(4))
[8] = biological target: human CTLA4 antibody containing human κ light chain subgroup 3 (Vκ3) (manufactured by R&D Systems); assay: as above
[9] = biological target: Herceptin containing human κ light chain subgroup 1 (Vκ1) (manufactured by Chugai Pharmaceutical Co., Ltd.); assay: ELISA; Herceptin immobilised, binding protein at 2 ug/mL, dissociation with 0.05 M citric acid pH 2.4 for 2 min, absorbance ratio to wells without dissociation

| Antibody-binding activity (absorbance) (absorbance (450 nm)) [1] | Polyclonal antibody-binding activity (abs@450 nm) [3] [abs@450 nm] | Polyclonal antibody-binding activity (abs@450 nm) [4] [abs@450 nm] | Polyclonal antibody-binding activity (abs@450 nm) [5] [abs@450 nm] | Polyclonal antibody-binding activity (abs@450 nm) [6] [abs@450 nm] | Binder | also measured |
| --- | --- | --- | --- | --- | --- | --- |
| 0.46 |  |  |  |  | FpL_C3 5d (designed binder) ETPEEPKEEVTIKVNLIFADGKIQTAEFKGTFEEATAKAYAYAGLLAKVSGVYTADLEDGGYTINIKFAGHHHHHH |  |
|  | 0.55 | 0.65 | 0.66 | 0.59 | FpL_C4KR (designed binder) ETPEEPREEVTIRVNLIFADGRTQTAEFRGTFEEATAEAYRYADLLARVNGEYTADLEDGGYTINIRFAGHHHHHH | Elution pH [2]: 2.8 pH |
| 0.9 |  |  |  |  | FpL_C3 4f (designed binder) ETPEEPKEEVTIKVNLIFADGKIQTAEFKGTFEEATAKAYAYADLLAKEYGVYTADLEDGGYTINIKFAGHHHHHH |  |
| 0.72 |  |  |  |  | FpL_C3 2a (designed binder) ETPEEPKEEVTIKVNLIFADGKIQTAEFKGTFEEATAKAYAYANLLAKEYGGYTADLEDGGNTINIKFAGHHHHHH |  |

The remaining lines, values behind:

| Binder | Antibody-binding activity (absorbance) (absorbance (450 nm)) [1] | Polyclonal antibody-binding activity (abs@450 nm) [3] [abs@450 nm] | Polyclonal antibody-binding activity (abs@450 nm) [4] [abs@450 nm] | Polyclonal antibody-binding activity (abs@450 nm) [5] [abs@450 nm] | Polyclonal antibody-binding activity (abs@450 nm) [6] [abs@450 nm] | also measured |
| --- | --- | --- | --- | --- | --- | --- |
| FpL_C3 5c (designed binder) ETPEEPKEEVTIKVNLIFADGKIQTAEFKGTFEEATAKAYAYAGLLAKVYGVYTADLEDGGYTINIKFAGHHHHHH | 0.74 |  |  |  |  |  |
| FpL_C3KR (designed binder) ETPEEPREEVTIRVNLIFADGRIQTAEFRGTFEEATARAYAYANLLARENGEYTADLEDGGNTINIRFAGHHHHHH |  | 0.77 | 0.92 | 0.32 | 0.21 | Polyclonal antibody-binding activity (abs@450 nm) [7]: 0.86 abs@450 nm; Polyclonal antibody-binding activity (abs@450 nm) [8]: 0.07 abs@450 nm |
| FpL_C3KX 3a (designed binder) ETPEEPAEEVTIRVNLIFADGQIQTAEFIGTFEEATARAYAYANLLAREYGGYTADLEDGGYTINIRFAGHHHHHH |  | 0.76 | 0.87 | 0.21 | 0.12 |  |
| FpL_C3KX 6a (designed binder) ETPGEPAEEVTIRVNLIFADGRIQTAEFIGTFEEATARAYAYANLLARDYGDFTADLEDGGYTINIRFAGHHHHHH |  |  |  |  |  | Elution rate [%] [9]: 25% |
| FpL_C3KX 5e (designed binder) ETPEEPAEEVTIRVNLIFADGRIQTAEFIGTFEEATARAYAYANLLARDYGGFTADLEDGGYTINIRFAGHHHHHH |  |  |  |  |  | Polyclonal antibody-binding activity (abs@450 nm) [7]: 0.96 abs@450 nm; Polyclonal antibody-binding activity (abs@450 nm) [8]: 0.06 abs@450 nm |
| FpL_C3KX 4h (designed binder) ETPEEPAEEVTIRVNLIFADGQIQTAEFIGTFEEATARAYAYANLLARDYGGYTADLEDGGYTINIRFAGHHHHHH |  | 0.62 | 0.69 | 0.63 | 0.56 |  |
| FpL_C3KX 7c (designed binder) ETPGEPAEEVTIRVNLIFADGRIQTAEFIGTFEEATARAYAYANLLRRDYGDFTADLEDGGYTINIRFAGHHHHHH |  |  |  |  |  | Elution rate [%] [9]: 59% |
| FpL_C3KX_5e_P6S (designed binder) ETPEESAEEVTIRVNLIFADGRIQTAEFIGTFEEATARAYAYANLLARDYGGFTADLEDGGYTINIRFAGHHHHHH |  |  |  |  |  | Polyclonal antibody-binding activity (abs@450 nm) [7]: 0.98 abs@450 nm; Polyclonal antibody-binding activity (abs@450 nm) [8]: 0.78 abs@450 nm |
| FpL_C3KX 7b (designed binder) ETPGEPAEEVTIRVNLIFADGRIQTARFIGTFEEATARAYAYANLLARDYGDFTADLEDGGYTINIRFAGHHHHHH |  |  |  |  |  | Elution rate [%] [9]: 61% |

— US20250002543A1
